Data on eight molecules can be found in paper PMC9879961 (Nature Communications, 2023).

The target in data set [1] is T1, RAD51 (UniProt Q06609 1-339).
T1 construct: No tag is named; also called RAD51 recombinase; source: E. coli BLR pRARE (pET11-RAD51), purified (ammonium sulfate, Q Sepharose, hydroxyapatite, Mono-Q)
T1 sequence (looked up): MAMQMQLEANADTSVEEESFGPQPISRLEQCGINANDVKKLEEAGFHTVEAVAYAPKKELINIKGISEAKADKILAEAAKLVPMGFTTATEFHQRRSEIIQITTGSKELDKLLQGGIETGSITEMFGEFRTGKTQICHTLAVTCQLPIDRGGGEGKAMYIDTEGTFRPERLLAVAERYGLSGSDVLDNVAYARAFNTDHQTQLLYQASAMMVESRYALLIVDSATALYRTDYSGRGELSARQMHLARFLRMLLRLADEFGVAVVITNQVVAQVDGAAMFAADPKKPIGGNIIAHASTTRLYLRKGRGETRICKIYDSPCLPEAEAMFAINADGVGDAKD
Kind of data set: pull-down; CTRB species held through the S-tag on S-Protein agarose; RAD51 and CTRB 4 µg each; 25 µl buffer T (25 mM Tris-HCl pH 7.5, 0.5 mM EDTA, 10% glycerol, 0.01% Igepal) with 150 mM KCl and Benzonase; on ice 30 min, resin 1 h at 4 °C; SDS-PAGE, Coomassie. The following applies: both partners purified.

The target of another data set is T2, CTRB (Homo sapiens, UniProt P51587 3194-3418).
T2 sequence: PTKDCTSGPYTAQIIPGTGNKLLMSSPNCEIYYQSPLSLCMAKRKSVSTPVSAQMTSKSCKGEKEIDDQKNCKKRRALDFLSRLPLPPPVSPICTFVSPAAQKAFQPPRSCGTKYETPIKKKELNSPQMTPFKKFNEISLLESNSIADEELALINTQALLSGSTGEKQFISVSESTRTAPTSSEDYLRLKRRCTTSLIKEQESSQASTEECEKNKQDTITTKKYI
Kind of data set: EMSA; highest affinity of the three DNAs; EMSA: 10 nM DNA, 35 mM Tris pH 7.5, 1 mM MgCl2, 1 mM DTT, 100 ug/ml BSA, 50 mM KCl, 25 C, 5 min; 8% native PAGE in TAE. The following applies: protein: recombinant; tags: N-term His6-thioredoxin-S (pET32a), C-term Flag; label: 5' Cy5 on H3; fork 1:2, 40 bp duplex with two 40 nt ssDNA arms.

Data set [2] addresses T1, RAD51. Description: pull-down; GST-tagged TR2 polypeptides captured on glutathione-Sepharose with RAD51; 10 µl buffer K (20 mM KH2PO4 pH 7.5, 0.5 mM EDTA, 10% glycerol, 0.01% Igepal) with 150 mM KCl; SDS-PAGE, Coomassie. The following applies: both partners purified.

B1: CTRB (BRCA2 residues 3194-3418), His6-Thioredoxin-S tagged, C-terminally Flag-tagged (domain or fragment, human, UniProt P51587 3194-3418, looked up)
chain: PTKDCTSGPYTAQIIPGTGNKLLMSSPNCEIYYQSPLSLCMAKRKSVSTPVSAQMTSKSCKGEKEIDDQKNCKKRRALDFLSRLPLPPPVSPICTFVSPAAQKAFQPPRSCGTKYETPIKKKELNSPQMTPFKKFNEISLLESNSIADEELALINTQALLSGSTGEKQFISVSESTRTAPTSSEDYLRLKRRCTTSLIKEQESSQASTEECEKNKQDTITTKKYI
notes: BRCA2, human, residues 3194-3418 of the 3,418-residue protein; No tag cleavage is described; also called wild-type CTRB; source: E. coli Rosetta (pET32a), purified (Ni-NTA, Source S, anti-Flag M2, Mono-Q)
In the case of B1, the binding result in the data set with RAD51 [1] is reported as “binds”.

B2: CTRB-4A (BRCA2 residues 3194-3418, KKRR(3266-3269) to AAAA) (domain or fragment, human, UniProt P51587 3194-3418, looked up)
chain: PTKDCTSGPYTAQIIPGTGNKLLMSSPNCEIYYQSPLSLCMAKRKSVSTPVSAQMTSKSCKGEKEIDDQKNCAAAAALDFLSRLPLPPPVSPICTFVSPAAQKAFQPPRSCGTKYETPIKKKELNSPQMTPFKKFNEISLLESNSIADEELALINTQALLSGSTGEKQFISVSESTRTAPTSSEDYLRLKRRCTTSLIKEQESSQASTEECEKNKQDTITTKKYI
notes: BRCA2, human, residues 3194-3418; also called 4 A mutant; source: E. coli Rosetta (pET32a), purified as the wild type
On to B2, for which the binding result with RAD51 [1] is on record as “binds”.

B3: CTRB-S3291A (domain or fragment, human, UniProt P51587 3194-3418, looked up)
chain: PTKDCTSGPYTAQIIPGTGNKLLMSSPNCEIYYQSPLSLCMAKRKSVSTPVSAQMTSKSCKGEKEIDDQKNCKKRRALDFLSRLPLPPPVSPICTFVAPAAQKAFQPPRSCGTKYETPIKKKELNSPQMTPFKKFNEISLLESNSIADEELALINTQALLSGSTGEKQFISVSESTRTAPTSSEDYLRLKRRCTTSLIKEQESSQASTEECEKNKQDTITTKKYI
notes: BRCA2, human, CTRB (residues 3194-3418) with S3291A; Called a CTRB mutant purified as wild-type CTRB; source: E. coli, purified using the procedure developed for wild-type CTRB
B3: the binding result with RAD51 [1] is “binds”.

B4: CTRB-S3291E (domain or fragment, human, UniProt P51587 3194-3418, looked up)
chain: PTKDCTSGPYTAQIIPGTGNKLLMSSPNCEIYYQSPLSLCMAKRKSVSTPVSAQMTSKSCKGEKEIDDQKNCKKRRALDFLSRLPLPPPVSPICTFVEPAAQKAFQPPRSCGTKYETPIKKKELNSPQMTPFKKFNEISLLESNSIADEELALINTQALLSGSTGEKQFISVSESTRTAPTSSEDYLRLKRRCTTSLIKEQESSQASTEECEKNKQDTITTKKYI
notes: BRCA2, human, CTRB (residues 3194-3418) with S3291E; Called a CTRB mutant purified as wild-type CTRB; source: E. coli, purified using the procedure developed for wild-type CTRB
Turning to B4, in the data set with RAD51 [1], the binding result is recorded as “binds”.

B5: Fork substrate (Oligo-H3/H5) (mixed)
DNA 1: TTGATAAGAGGTCATTTGAATTCATGGCTTAGAGCTTAATTGCTGAATCTGGTGCTGGGATCCAACATGTTTTAAATATG
DNA 2: CATATTTAAAACATGTTGGATCCCAGCACCAGATTCAGCATACGTTACCGATCGTACGTTCGATGCTGGCTACTGCTAGC
For B5, in the data set with CTRB, the binding result is listed as “binds”.

B6: GST-TR2 (BRCA2 residues 3265-3330) (domain or fragment, human, UniProt P51587 3265-3330, looked up)
chain: CKKRRALDFLSRLPLPPPVSPICTFVSPAAQKAFQPPRSCGTKYETPIKKKELNSPQMTPFKKFNE
notes: BRCA2, human, TR2 region, residues 3265-3330; also called BRCA2-TR2 polypeptide; source: E. coli Rosetta (pGEX-TR2), purified (glutathione-Sepharose, SP Sepharose); not shown: GST, N-terminal, kept
As for B6, the binding result in the data set with RAD51 [2] is reported as “binds”.

B7: GST-TR2 with deletion of residues 3306-3310 (domain or fragment, human, UniProt P51587 3265-3330, looked up)
chain: CKKRRALDFLSRLPLPPPVSPICTFVSPAAQKAFQPPRSCGPIKKKELNSPQMTPFKKFNE
notes: BRCA2, human, TR2 region, residues 3265-3330, internally truncated; source: E. coli Rosetta (pGEX-TR2 variant), purified (glutathione-Sepharose, SP Sepharose); not shown: GST, N-terminal, kept
On to B7, for which the binding result with RAD51 [2] is recorded as “binds”.

B8: GST-TR2 with deletion of residues 3291-3295 (domain or fragment, human, UniProt P51587 3265-3330, looked up)
chain: CKKRRALDFLSRLPLPPPVSPICTFVKAFQPPRSCGTKYETPIKKKELNSPQMTPFKKFNE
notes: as for B7
B8: the binding result with RAD51 [2] was “binds”.
